Test results as given in patent publication US20050214219A1, “24p3 receptors and uses thereof” (priority 2003, published 2005).
Structures can show the parent of a compound that is named as a salt.

Tests used:
HIFIα and Nip3 = test: expression of HIFIα and Nip3 (response to decreased intracellular iron); assay type: cell-based
Description: It is well established that iron chelators can induce apoptosis. […] To examine this possibility, the expression of two genes, HIFIα and Nip3, was analyzed. The two genes are unregulated in response to decreased intracellular iron concentration. As a control, cells were treated with the bacterial siderophore desferrioxamine (DFO), an iron chelator, and analyzed in parallel.

[1] = test system: calcein-loaded HeLa cells; test: intracellular iron in living cells with iron-sensing dye calcein; assay type: cell-based; settings: for calcein fluorescence (inverse to intracellular iron level): calcein-loaded HeLa cells expressing 24p3 receptor, FIG. 3
Description: In this particular example, intracellular iron levels were measured in living cells using the iron-sensing dye calcein. Calcein is a fluorescent, cell permeable dye. Because its fluorescence is quenched upon iron binding, calcein can be used to measure free (also called labile or chelatable) iron in living cells.

[2] = test system: HeLa/24p3R-L, HeLa/24p3R-S, or HeLa/X7 cells; test: intracellular iron monitored by expression of iron-regulated genes ferritin and transferrin receptor 1; assay type: cell-based
Description: Experiments were performed to determine whether 24p3R expression would confer on cells the ability to deliver iron in a 24p3-dependent fashion. In these experiments, as well as those described below, three preparations of 24p3 were used: bacterially derived iron-loaded 24p3 (holo-24p3), bacterially derived iron-lacking 24p3 (apo-24p3), and conditioned medium (CM) from cytokine-deprived FL5.12 cells, which contains 24p3 (FL5.12-24p3). The three preparations of 24p3 were added to HeLa/24p3R-L, HeLa/24p3R-S, or HeLa/X7 cells, and, as a control, iron-containing transferrin (holo-transferrin) was added in parallel samples. To monitor intracellular iron concentration, the expression of two iron-regulated genes, ferritin and transferrin receptor 1 were examined.

24p3-mediated apoptosis = test: ability of holo-transferrin to block 24p3-mediated apoptosis; assay type: cell-based
Text: If the basis of 24p3-mediated apoptosis is in fact decreased intracellular iron concentration, then apoptosis should be prevented by iron delivery. To test this prediction, the ability of holo-transferrin to block 24p3-mediated apoptosis was examined.

24p3R [3] = test: Internalization assay of 32P-24p3; assay type: cell-based, murine
Description: HeLa cells constitutively expressing 24p3R were treated with ^32P-24p3 and at various time points cells were washed three times with PBS and incubated for 15 minutes in proteinase K, trypsin, and EDTA solution to remove the extracellular portion of the receptor. The dislodged cells were then collected and counted.
24p3 and other lipocalins are internalized following binding to their cell surface receptor. […] Thus, cells ectopically expressing 24p3R can be used as reagents for examining the function of 24p3 and 24p3R as well as in assays to identify compounds that affect expression or activity of a 24p3R or a 24p3 (e.g., 24p3 or NGAL).

24p3R [4] = test: ligand-cell binding of 32P-labeled 24p3 to HeLa cells ectopically expressing 24p3R; set-up: species or system murine
Text: HeLa cells expressed only low levels of 24p3R. To perform functional experiments HeLa cell lines were derived that stably express recombinant N-terminal epitope-tagged derivatives of 24p3R-L and 24p3R-S (HeLa/24p3R-L and HeLa/24p3R-S) and, as a control, the empty expression vector (HeLa/X7). Immunoblot analysis confirmed expression of 24p3R in HeLa/24p3R-L and HeLa/24p3R-S cells.
To determine whether the ectopically expressed 24p3R was able to bind 24p3, a series of ligand-cell binding experiments were performed. […] Binding of ^32P-labeled 24p3 to HeLa/24p3R-L and HeLa/24p3R-S was saturable and blocked by the addition of an excess of unlabeled 24p3. […] Thus, ectopically expressed 24p3R can bind to 24p3.

[5] = test system: 32D cells or 32D/BCR-ABL^p190 cells; test: cellular ligand-uptake of fluorescently derivatized 24p3 by fluorescence microscopy; assay type: cell-based, mouse
Description: A cellular ligand-uptake experiment was performed in which 24p3 was fluorescently derivatized, added to 32D cells or 32D/BCR-ABL^p190 cells, and 24p3 internalization analyzed by fluorescence microscopy.

[6] = test system: HeLa/24p3R-L, HeLa/24p3R-S, or HeLa/X7 cells; test: colorimetric determination of intracellular free (non-haem) iron concentration; assay type: cell-based
Description: Colorimetric determination of intracellular non-haem iron concentration was measured as described by Leardi et al., (1998, Br. J. Haematol., 102:746-752) with modifications. Briefly, cells were washed twice with ice-cold PBS and then lysed with lysis buffer (1% TRITON™-X100, 10% glycerol. 25 mM HEPES, pH 7.4, in PBS) and incubated with 0.3 N HCl. The proteins in the lysates were precipitated with 10% TCA (trichloroacetic acid) and centrifuged at 1200×g for 15 minutes. The lysates were then mixed with iron chromogen, FERROZINE® (Sigma) in iron buffer reagent (1.5% hydroxylamine HCl in acetate buffer, pH 4.5) and the absorbance was measured spectrophotometrically at 560 nm. The non-heme iron concentration was measured by interpolating the absorbance of each sample using preset iron standards (Sigma) and expressed as mg/dL.
To confirm the results disclosed above, a […] assay that directly measures free iron concentration was employed.

[7] = test system: HeLa/24p3R-L, HeLa/24p3R-S, or HeLa/X7 cells; test: 24p3-dependent apoptosis by annexin V-FITC staining; assay type: cell-based; settings: for apoptosis (annexin V-FITC staining; confirmed by PARP and caspase 3 cleavage): HeLa/24p3R-L and HeLa/24p3R-S cells
Description: To examine the ability of 24p3R to mediate 24p3-dependent apoptosis, different preparations of 24p3 were added to the three HeLa cell lines described above and apoptosis was analyzed by annexin V-FITC staining. […] Apoptosis was confirmed by analyzing proteolytic cleavage of PARP (poly(ADP-ribose)polymerase) and caspase 3.

[8] = HeLa/24p3R-L and HeLa/24p3R-S cells

24p3R, sequence (as listed by the source): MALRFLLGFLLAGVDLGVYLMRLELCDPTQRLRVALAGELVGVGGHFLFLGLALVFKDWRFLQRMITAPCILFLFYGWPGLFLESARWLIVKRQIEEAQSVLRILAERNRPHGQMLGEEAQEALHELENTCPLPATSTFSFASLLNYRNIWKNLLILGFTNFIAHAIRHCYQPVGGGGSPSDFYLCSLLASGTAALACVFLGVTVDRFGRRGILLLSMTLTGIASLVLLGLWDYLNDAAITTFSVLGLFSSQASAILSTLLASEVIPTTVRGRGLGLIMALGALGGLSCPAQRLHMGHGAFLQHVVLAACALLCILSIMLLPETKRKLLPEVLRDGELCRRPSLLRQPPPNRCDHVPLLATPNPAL

CC(=O)N(O)CCCCCNC(=O)CCC(=O)N(O)CCCCCNC(=O)CCC(=O)N(O)CCCCCN [DFO, deferoxamine mesylate, reference compound] was tested, and the “expression of HIFIα and Nip3” value (HIFIα and Nip3; all three HeLa cell lines) was “induced expression of HIFIα and Nip3”, the “calcein fluorescence (inverse to intracellular iron level)” value (shortened to “calcein fluorescence”) [1] was “large increase in fluorescence emission” and the “intracellular iron levels (calcein)” value ([1]; control HeLa cells (HeLa/X7)) was “altered iron levels”.

With “holo-transferrin: iron-containing transferrin, used as control [reference compound]” the “intracellular iron concentration (ferritin / transferrin receptor 1 expression)” value ([2]; all three HeLa cell lines) was “increased iron concentration”, the levels of ferritin ([2]; all three HeLa cell lines) was “increased levels of ferritin” and the “levels of transferrin receptor 1” value ([2]; all three HeLa cell lines) was “decreased levels of transferrin receptor 1”. The “effect on apoptosis by 24p3” value (24p3-mediated apoptosis) was “blocked apoptosis by 24p3” and the “effect on apoptosis induced by other agents” value (24p3-mediated apoptosis; apoptosis induced by etoposide or staurosporine) was “had no effect”.

B1: 24p3: recombinant mouse lipocalin 24p3, ligand of 24p3R; used 32P-labeled or fluorescently derivatized (protein)
chain: QDSTQNLIPAPSLLTVPLQPDFRSDQFRGRWYVVGLAGNAVQKKTEGSFTMYSTIYELQENNSYNVTSILVRDQDQGCRYWIRTFVPSSRAGQFTLGNMHRYPQVQSYNVQVATTDYNQFAMVFFRKTSENKQYFKITLYGRTKELSPELKERFTRFAKSLGLKDDNIIFSVPTDQCIDN
With B1 the “internalization of 32P-labeled 24p3” value (24p3R [3]; [8]) was “internalized by HeLa/24p3R-L and HeLa/24p3R-S cells”, the “internalization of 32P-labeled 24p3” value (24p3R [3]; HeLa/X7 cells) was “not by HeLa/X7 cells” and the “binding of 32P-labeled 24p3 to cells” value (24p3R [4]; [8]) was “bound to HeLa/24p3R-L and HeLa/24p3R-S cells”. The “binding of 32P-labeled 24p3 to cells” value (24p3R [4]; HeLa/X7 cells (empty vector control)) was “not to HeLa/X7 cells”, the “internalization of fluorescently labeled 24p3” value ([5]; 32D cells) was “internalized” and the “internalization of fluorescently labeled 24p3” value ([5]; 32D/BCR-ABL^p190 cells) was “not 32D/BCR-ABL^p190 cells”.

B2: apo-24p3: bacterially derived iron-lacking 24p3 (protein)
chain: QDSTQNLIPAPSLLTVPLQPDFRSDQFRGRWYVVGLAGNAVQKKTEGSFTMYSTIYELQENNSYNVTSILVRDQDQGCRYWIRTFVPSSRAGQFTLGNMHRYPQVQSYNVQVATTDYNQFAMVFFRKTSENKQYFKITLYGRTKELSPELKERFTRFAKSLGLKDDNIIFSVPTDQCIDN
B2 was tested, and the “intracellular iron concentration (ferritin / transferrin receptor 1 expression)” value ([2]; all three HeLa cell lines) was “did not increase intracellular iron”, the “HIFIα levels and Nip3 transcription” value (HIFIα and Nip3; HeLa/24p3R-S cells) was “increased HIFα levels and Nip3 transcription” and the “free iron concentration (colorimetric assay)” value (from here on “free iron concentration”) [6, 8] was “substantially reduced free iron concentration”. The “apoptosis (annexin V-FITC staining; confirmed by PARP and caspase 3 cleavage)” value [7] was “induced apoptosis”, the “apoptosis (annexin V-FITC staining)” value ([7]; HeLa/X7 cells) was “not in HeLa/X7 cells” and the “calcein fluorescence” value [1] was “large increase in fluorescence emission”.

B3: holo-24p3: bacterially derived iron-loaded 24p3 (protein)
chain: QDSTQNLIPAPSLLTVPLQPDFRSDQFRGRWYVVGLAGNAVQKKTEGSFTMYSTIYELQENNSYNVTSILVRDQDQGCRYWIRTFVPSSRAGQFTLGNMHRYPQVQSYNVQVATTDYNQFAMVFFRKTSENKQYFKITLYGRTKELSPELKERFTRFAKSLGLKDDNIIFSVPTDQCIDN
B3 was tested, and the “intracellular iron concentration (ferritin / transferrin receptor 1 expression)” value [2, 8] was “increased intracellular iron concentration”, the “intracellular iron concentration (ferritin / transferrin receptor 1 expression)” value ([2]; HeLa/X7 cells) was “not in HeLa/X7 cells” and the “free iron concentration” value [6, 8] was “increased intracellular iron”. The “free iron concentration” value ([6]; HeLa/X7 cells) was “not in HeLa/X7 cells”, the “apoptosis (annexin V-FITC staining; confirmed by PARP and caspase 3 cleavage)” value [7] was “failed to induce apoptosis” and the “calcein fluorescence” value [1] was “decrease in fluorescence intensity”.
